Results reported in patent US12102696B2, “Radiolabeling and formulation for scale up of 64Cu-DOTATATE” (Curium US LLC, priority 2020, dated 2024).
Marks after values point to notes of the source that are not given here.

Tests used:
[1] = Stability (RCP by radio-HPLC) of purified scale-up 64Cu-DOTATATE reactions; type: physicochemical; settings: for RCP: Sep-Pak purified material
Procedure: (§1) HPLC was performed using an Agilent 1200 series system equipped with a variable wavelength UV-Vis detector followed in-line with a sodium iodide detector (Bioscan B-FC-200P). A Phenomenex Luna C18 column (150 mm×.4.6 mm, 5 μm) was used. The mobile phase was made of Solvent A and Solvent B. Solvent A was a 0.1% trifluoroacetic acid (TFA) in HRW, and solvent B was 0.1% TFA acid in acetonitrile (ACN). The gradient was (i) 15-40% Solvent B in A for 10 min, 40% Solvent B in A from 10 to 15 min, 15% Solvent B in A from 15-16 min, and 15% Solvent B in Solvent A from 16-19 min. The flow rate was 1.2 mL/min, and UV detection was monitored at 220 nm.
Radiolabeling reactions followed the general procedure described herein. A solution of ^64Cu in 0.05 M HCl was mixed with a solution of DOTATATE in sodium acetate/gentisic acid buffer. The reaction mixture was heated to 30° C. for 5 min and then purified via a C-18 solid phase extraction cartridge. The purified ^64Cu-DOTATATE was collected in 2 mL of 50% EtOH and subsequently diluted with an ascorbic acid solution. The final product was assayed for activity and the radiochemical purity (RCP) was evaluated via radio-HPLC analysis. Characterization was performed against non-radioactive DOTATATE (tR=6.3 min) and Cu-DOTATATE (tR=7.3 min) standards.
Representative reactions for 100 mCi-7000 mCi batch sizes and results are outlined in Table 9. […] The remainder of the activity eluted (tR=6.2-7.2 min) are attributed to degradation products due to radiolysis.

[2] = target: somatostatin receptors, subtype 2 receptors (SSTR2) (Homo sapiens, UniProt P30874); settings: cited from earlier work
Chain of somatostatin receptors, subtype 2 receptors (SSTR2) (P30874 whole entry): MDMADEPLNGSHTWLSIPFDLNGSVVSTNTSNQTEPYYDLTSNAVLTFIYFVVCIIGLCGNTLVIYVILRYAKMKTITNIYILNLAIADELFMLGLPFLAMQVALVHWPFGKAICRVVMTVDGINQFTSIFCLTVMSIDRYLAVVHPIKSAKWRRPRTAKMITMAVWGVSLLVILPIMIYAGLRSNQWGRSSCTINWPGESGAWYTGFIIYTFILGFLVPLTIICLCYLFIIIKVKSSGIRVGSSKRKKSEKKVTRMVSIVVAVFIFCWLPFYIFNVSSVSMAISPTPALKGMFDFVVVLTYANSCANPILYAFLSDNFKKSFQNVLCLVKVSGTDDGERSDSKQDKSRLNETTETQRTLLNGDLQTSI

[3] = Stability of 64Cu-DOTATATE in final dose matrix (NaOAsc, EtOH, GA) by HPLC; type: physicochemical
Procedure: as §1
The effect of ethanol (EtOH) and gentisic acid (GA) content in the final dose matrix on chemical stability of ^64Cu-dotatate was assessed. In these experiments, 500 mCi reactions were performed using the general procedure outlined in Example 2 and the ^64Cu-DOTATATE product was eluted from the Sep-Pak with 2 mL of 50% EtOH (aq) into 5 mL of 50 mg/mL NaOAsc buffer to serve as the purified ^64Cu-DOTATATE stock solution. From the ^64Cu-DOTATATE stock, 1 mL aliquots were transferred to vials containing the following solutions:
In those samples, the decrease in ^64Cu-DOTATATE correlated with an increase in free ^64Cu and two unknown radioimpurities at tR=6.6 min and 7.1 min.

[4] = reaction 120.6 mCi 64Cu at TOS, 200 μg DOTATATE
[5] = reaction 481 mCi 64Cu at TOS, 1000 μg DOTATATE, average of two samples
[6] = reaction 1190 mCi 64Cu at TOS, 2000 μg DOTATATE, average of two samples
[7] = reaction 2402 mCi 64Cu at TOS, 4000 μg DOTATATE, average of two samples
[8] = reaction 7297 mCi 64Cu at TOS, 4378 μg DOTATATE

C[C@@H](O)[C@H](NC(=O)[C@@H]1CSSC[C@H](NC(=O)[C@@H](Cc2ccccc2)NC(=O)CN2CCN3CCN(CC(=O)O)CCN(CC2)CC(=O)[O][64Cu][O]C(=O)C3)C(=O)N[C@@H](Cc2ccc(O)cc2)C(=O)N[C@H](Cc2c[nH]c3ccccc23)C(=O)N[C@@H](CCCCN)C(=O)N[C@@H]([C@@H](C)O)C(=O)N1)C(=O)O [^64Cu-DOTATATE, copper (Cu64)-N-[(4,7,10-Tricarboxymethyl-1,4,7,10-tetraazacyclododec-1-yl)acetyl]-Dphenylalanyl-L-cysteinyl-L-tyrosyl-D-tryptophanyl-L-lysyl-L-threoninyl-L-cysteinyl-L-threonine-cyclic (2-7) disulfide]
period over which stable (HPLC) ([1]; purified reaction solutions): at least 47 h
RCP Day 1 (+24 hr) [1, 4]: 97.7%^
RCP Day 2 (+47 hr) [1, 4]: 95.0%^
RCP [1, 4]: 98.9%^
RCP [1, 5]: 99.4%^c
RCP Day 1 (+24 hr) [1, 5]: 99.7%^c
RCP Day 2 (+47 hr) [1, 5]: 99.4%^c
RCP [1, 6]: 99.6%^c
RCP Day 1 (+24 hr) [1, 6]: 99.4%^c
RCP Day 2 (+47 hr) [1, 6]: 99.7%^c
RCP [1, 7]: 99.2%^c
RCP Day 1 (+24 hr) [1, 7]: 99.4%^c
RCP Day 2 (+47 hr) [1, 7]: 99.3%^c
RCP Day 2 (+47 hr) [1, 8]: 95%
RCP [1, 8]: 95%
affinity for somatostatin receptor subtypes [2]: highest affinity for subtype 2 receptors (SSTR2)
purity, chemically stable for two days ([3]; sodium ascorbate 45-122 mg/mL, ethanol 1.6%-5.2%, activity concentration 3.6-16 mCi/mL at time of preparation): greater than 95%
purity, remained stable ([3]; sodium ascorbate up to 98 mg/mL, ethanol up to 9.7%, activity concentration approximately 18 mCi/mL at time of preparation): greater than 90%
